The values that follow come from publication PMC3303177.

One series concerns the target His-GAS41 (UniProt O95619 1-227). Put plainly: EMSA.
Another series has as its target GST-AP-2β (UniProt Q92481 1-460). The series is described as follows: EMSA.

Sequence of His-GAS41 (O95619 whole entry): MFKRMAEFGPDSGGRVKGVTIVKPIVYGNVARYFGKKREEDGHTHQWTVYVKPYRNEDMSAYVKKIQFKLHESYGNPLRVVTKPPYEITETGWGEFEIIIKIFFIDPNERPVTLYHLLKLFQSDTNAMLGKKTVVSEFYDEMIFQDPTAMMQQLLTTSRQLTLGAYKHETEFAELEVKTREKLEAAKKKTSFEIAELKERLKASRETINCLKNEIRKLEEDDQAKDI
Sequence of GST-AP-2β (Q92481 whole entry): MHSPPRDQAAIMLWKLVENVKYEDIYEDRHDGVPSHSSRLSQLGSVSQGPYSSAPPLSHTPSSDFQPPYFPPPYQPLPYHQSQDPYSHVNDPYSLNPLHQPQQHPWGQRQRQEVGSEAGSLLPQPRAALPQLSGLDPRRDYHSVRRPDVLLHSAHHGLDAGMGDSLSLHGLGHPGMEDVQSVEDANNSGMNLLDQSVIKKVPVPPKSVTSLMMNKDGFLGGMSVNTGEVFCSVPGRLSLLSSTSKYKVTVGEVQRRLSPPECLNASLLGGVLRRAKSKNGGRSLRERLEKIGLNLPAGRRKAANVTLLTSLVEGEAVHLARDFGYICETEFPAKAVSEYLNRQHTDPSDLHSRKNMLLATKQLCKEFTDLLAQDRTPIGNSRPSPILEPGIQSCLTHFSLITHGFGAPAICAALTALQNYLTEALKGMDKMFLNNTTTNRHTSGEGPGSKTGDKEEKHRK

B1: hMT AP-2 consensus probe (dsDNA)
DNA 1: TGACCGCCCGCGGCCCGTG
DNA 2: CACGGGCCGCGGGCGCTCA
Turning to B1, the binding result was “no binding” with His-GAS41 and “binds” with GST-AP-2β.
